Data on two molecules can be found in patent publication US8748480B2, “Methods for treating opioid tolerance” (priority 2005, dated 2014).

One assay has as its target T1, Gβ1γ2 Asp186Ala (Rattus norvegicus, UniProt P54311, D186A).
T1 construct: made in house; host or cells: Sf9 insect cells (baculovirus)
Description: Phage ELISA, b-βγ mutant Asp186Ala. The class given is binding. To be noted: alanine-substituted Asp186, N-Terminal Interface; mean ± SD. From the text: (§1) Wild-type Gβ1 and Gβ1 mutants were made in the baculovirus vector PDW464 which encodes a biotinylation site at a lysine upstream of the amino terminus of Gβ1 (Goubaeva, et al. (2003) supra). Mutants were generated by overlap extension PCR using standard protocols. The wild-type and mutant Gβ1 constructs consisted of a 20 amino acid biotin acceptor peptide (BAP) sequence fused in-frame with the amino-terminus of rat Gβ1 subunit. When coexpressed with biotin holoenzyme synthetase (BirA) in Sf9 cells, the Gβ1 subunit becomes covalently biotinylated in vivo at the Specific lysine acceptor residue in the BAP. Using this approach, 1-2 mg protein of purified protein can be obtained per liter of Sf9 insect cells. As 45 ng of protein is used in the phage ELISA assay, a single purification is sufficient for 10,000 to 30,000 binding assays.
(§2) Phage ELISA assays used to assess peptide binding to wild-type and mutant b-βγ were performed according to standard methods (Smrcka and Scott (2002) Methods Enzymol. 344:557-76). Briefly, 1 μg streptavidin was immobilized in the well of a […] overnight at 4° C. The wells were blocked with 100 μL of 2% bovine serum albumin (BSA) in Tris-buffered saline (TBS) for 1 hour at 4° C. followed by three washes of 1×TBS/0.5% TWEEN®. Forty μL of 25 nM bGβ1γ2 in TBS/0.5% TWEEN® was added to each well and incubated at 4° C. for 1.5 hour. The wells were washed, followed by the addition of 1×10^6 to 1×10^10 phage particles and incubated at 4° C. for 3 hours. The wells were then washed six times with TBS/0.5% TWEEN® followed by addition of 40 μL of 1:5000 dilution of anti-M13 antibody (Pharmacia, Uppsala, Sweden) and incubated at room temperature for 1 hour. The wells were washed, followed by the addition of 40 μL of (2,2′-Azino-bis(3-ethylbenzthiazoline)-6-sulfonic acid (ABTS) and the colorimetric reaction was monitored at 405 nm. Non-specific binding was subtracted for each reading.
(§3) Both assays were then carried out with Gβ1γ2 heterodimers containing mutations in the Gβ1 subunit.
(§4) The nine peptides were selected to represent the different consensus groups of peptides previously identified (See Scott et al. (2001) supra; Table 9) and to compare binding characteristics within and between consensus groups. […] As disclosed herein, the binding signal obtained in the ELISA assay was correlated to a loss in affinity by comparing the results to behavior of the peptide in a solution based assay. […] For the purposes of present disclosure, any substitution that decreased the binding to less than 20% of the wild-type binding was considered to be a critical binding contact for that peptide.
(In general: An ELISA detects its analyte on a solid surface through an enzyme-linked reagent.)

In a further assay the target is T2, Gβ1γ2 Asn230Ala (Rattus norvegicus, UniProt P54311, N230A).
T2 construct: made in house; host or cells: Sf9 insect cells (baculovirus)
T2 sequence (P54311 whole entry N230A): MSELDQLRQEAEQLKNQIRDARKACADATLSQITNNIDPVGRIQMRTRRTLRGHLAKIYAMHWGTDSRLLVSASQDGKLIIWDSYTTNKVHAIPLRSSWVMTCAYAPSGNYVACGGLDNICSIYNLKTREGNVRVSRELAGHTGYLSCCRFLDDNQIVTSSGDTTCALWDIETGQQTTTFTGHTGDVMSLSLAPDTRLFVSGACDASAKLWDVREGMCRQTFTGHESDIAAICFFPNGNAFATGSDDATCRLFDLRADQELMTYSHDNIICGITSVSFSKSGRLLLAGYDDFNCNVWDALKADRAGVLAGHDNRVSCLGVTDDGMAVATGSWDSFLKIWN
T2 sequence (P63212 2-68 partner limits assumed): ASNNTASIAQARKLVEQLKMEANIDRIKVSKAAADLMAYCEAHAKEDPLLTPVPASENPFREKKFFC
The assay can be described thus: Phage ELISA, b-βγ mutant Asn230Ala. The class given is binding. To be noted: alanine-substituted Asn230, N-Terminal Interface; mean ± SD.
Text: as §1, §2, §3, §4

The target in a further assay is T3, Gβ1γ2 Tyr59Ala (Rattus norvegicus, UniProt P54311, Y59A).
T3 construct: made in house; host or cells: Sf9 insect cells (baculovirus)
T3 sequence (P54311 whole entry Y59A): as the sequence (P54311 whole entry N230A) above, with Y59A, A230N counted along it
T3 sequence (P63212 2-68 partner limits assumed): as the sequence (P63212 2-68 partner limits assumed) above
The assay can be described thus: Phage ELISA, b-βγ mutant Tyr59Ala. Format: binding. To be noted: alanine-substituted Tyr59, C-Terminal Interface; mean ± SD.
Text: as §1, with “BAP.” for “BAP. Using this approach, 1-2 mg protein of purified protein can be obtained per liter of Sf9 insect cells. As 45 ng of protein is used in the phage ELISA assay, a single purification is sufficient for 10,000 to 30,000 binding assays.”
as §2, with “Forty μL of 25 nM bGβ1γ2 in TBS/0.5% TWEEN® was added to each well and incubated at 4° C. for 1.5 hour.” left out
as §3
The nine peptides were selected to represent the different consensus groups of peptides previously identified (See Scott et al. (2001) supra; Table 9) and to compare binding characteristics within and between consensus groups. […] For the purposes of present disclosure, any substitution that decreased the binding to less than 20% of the wild-type binding was considered to be a critical binding contact for that peptide.

A further assay addresses T4, Gβ1γ2 Lys57Ala (Rattus norvegicus, UniProt P54311, K57A).
T4 construct: made in house; host or cells: Sf9 insect cells (baculovirus)
Description: Phage ELISA, b-βγ mutant Lys57Ala. The class given is binding. To be noted: alanine-substituted Lys57, C-Terminal Interface; mean ± SD.
Text: as §1, §2, §3, §4

For another assay, the target named is T5, Gβ1γ2 Leu117Ala (Rattus norvegicus, UniProt P54311, L117A).
T5 construct: made in house; host or cells: Sf9 insect cells (baculovirus)
T5 sequence (P54311 whole entry L117A): as the sequence (P54311 whole entry N230A) above, with L117A, A230N counted along it
T5 sequence (P63212 2-68 partner limits assumed): as the sequence (P63212 2-68 partner limits assumed) above
Description: Phage ELISA, b-βγ mutant Leu117Ala. Format: binding. To be noted: alanine-substituted Leu117, C-Terminal Interface; mean ± SD.
Text: as §1, §2, §3, §4

The next assay concerns the target T6, Gβ1γ2 Trp332Ala (Rattus norvegicus, UniProt P54311, W332A).
T6 construct: made in house; host or cells: Sf9 insect cells (baculovirus)
The assay can be described thus: Phage ELISA, b-βγ mutant Trp332Ala. The class given is binding. To be noted: alanine-substituted Trp332, C-Terminal Interface; mean ± SD.
Text: as §1, §2, §3, §4

A further assay concerns the target T7, Gβ1γ2 His311Ala (Rattus norvegicus, UniProt P54311, H311A).
T7 construct: made in house; host or cells: Sf9 insect cells (baculovirus)
The assay can be described thus: Phage ELISA, b-βγ mutant His311Ala. To be noted: alanine-substituted His311, Indirect; mean ± SD. The class given is binding.
Text: as §1, §2, §3, §4

The target in the next assay is T8, Gβ1γ2 Tyr145Ala (Rattus norvegicus, UniProt P54311, Y145A).
T8 construct: made in house; host or cells: Sf9 insect cells (baculovirus)
T8 sequence (P54311 whole entry Y145A): as the sequence (P54311 whole entry N230A) above, with Y145A, A230N counted along it
T8 sequence (P63212 2-68 partner limits assumed): as the sequence (P63212 2-68 partner limits assumed) above
The assay can be described thus: Phage ELISA, b-βγ mutant Tyr145Ala. Format: binding. To be noted: alanine-substituted Tyr145, N-Terminal Interface; mean ± SD.
Text: as §1, §2, §3, §4

Another assay has as its target T9, Gβ1γ2 Asp246Ser (Rattus norvegicus, UniProt P54311, D246S).
T9 construct: made in house; host or cells: Sf9 insect cells (baculovirus)
The assay can be described thus: Phage ELISA, b-βγ mutant Asp246Ser. The class given is binding. To be noted: Asp246 mutant (Asp246Ser), N-Terminal Interface; mean ± SD.
Text: as §1, §2, §3, §4

The target of another assay is T10, Gβ1γ2 Arg314Ala (Rattus norvegicus, UniProt P54311, R314A).
T10 construct: made in house; host or cells: Sf9 insect cells (baculovirus)
T10 sequence (P54311 whole entry R314A): as the sequence (P54311 whole entry N230A) above, with A230N, R314A counted along it
T10 sequence (P63212 2-68 partner limits assumed): as the sequence (P63212 2-68 partner limits assumed) above
The assay can be described thus: Phage ELISA, b-βγ mutant Arg314Ala. To be noted: alanine-substituted Arg314, Indirect; mean ± SD. The class given is binding.
Text: as §1, §2, §3, §4

The target of a further assay is T11, Gβ1γ2 Met101Ala (Rattus norvegicus, UniProt P54311, M101A).
T11 construct: made in house; host or cells: Sf9 insect cells (baculovirus)
T11 sequence (P54311 whole entry M101A): as the sequence (P54311 whole entry N230A) above, with M101A, A230N counted along it
T11 sequence (P63212 2-68 partner limits assumed): as the sequence (P63212 2-68 partner limits assumed) above
The assay can be described thus: Phage ELISA, b-βγ mutant Met101Ala. Format: binding. To be noted: alanine-substituted Met101, C-Terminal Interface; mean ± SD.
Text: as §1, §2, §3, §4

Another assay deals with T12, Gβ1γ2 Met188Ala (Rattus norvegicus, UniProt P54311, M188A).
T12 construct: made in house; host or cells: Sf9 insect cells (baculovirus)
T12 sequence (P54311 whole entry M188A): as the sequence (P54311 whole entry N230A) above, with M188A, A230N counted along it
T12 sequence (P63212 2-68 partner limits assumed): as the sequence (P63212 2-68 partner limits assumed) above
Description: Phage ELISA, b-βγ mutant Met188Ala. The class given is binding. To be noted: alanine-substituted Met188, Shared; mean ± SD.
Text: as §1, §2, §3, §4

The target of another assay is T13, Gβ1γ2 Trp99Ala (Rattus norvegicus, UniProt P54311, W99A).
T13 construct: made in house; host or cells: Sf9 insect cells (baculovirus)
T13 sequence (P54311 whole entry W99A): as the sequence (P54311 whole entry N230A) above, with W99A, A230N counted along it
T13 sequence (P63212 2-68 partner limits assumed): as the sequence (P63212 2-68 partner limits assumed) above
The assay can be described thus: Phage ELISA, b-βγ mutant Trp99Ala. The class given is binding. To be noted: alanine-substituted Trp99, C-Terminal Interface; mean ± SD.
Text: as §1, §2, §3, §4

In assay [1] the test system is fMLP-dependent ERK activation. The assay can be described thus: fMLP-dependent ERK activation. The class given is cell-based.

T1 sequence (P54311 whole entry D186A): as the sequence (P54311 whole entry N230A) above, with D186A, A230N counted along it
T1 sequence (P63212 2-68 partner limits assumed): as the sequence (P63212 2-68 partner limits assumed) above
T4 sequence (P54311 whole entry K57A): as the sequence (P54311 whole entry N230A) above, with K57A, A230N counted along it
T4 sequence (P63212 2-68 partner limits assumed): as the sequence (P63212 2-68 partner limits assumed) above
T6 sequence (P54311 whole entry W332A): as the sequence (P54311 whole entry N230A) above, with A230N, W332A counted along it
T6 sequence (P63212 2-68 partner limits assumed): as the sequence (P63212 2-68 partner limits assumed) above
T7 sequence (P54311 whole entry H311A): as the sequence (P54311 whole entry N230A) above, with A230N, H311A counted along it
T7 sequence (P63212 2-68 partner limits assumed): as the sequence (P63212 2-68 partner limits assumed) above
T9 sequence (P54311 whole entry D246S): as the sequence (P54311 whole entry N230A) above, with A230N, D246S counted along it
T9 sequence (P63212 2-68 partner limits assumed): as the sequence (P63212 2-68 partner limits assumed) above

Regarding LCSKAYLLLGQTC [2F], the “% of Wild-Type Signal, Asp186” value in the assay with Gβ1γ2 Asp186Ala came to 2.4 ± 3.5%. The “% of Wild-Type Signal, Asn230” value with Gβ1γ2 Asn230Ala is 27.6 ± 19.1%. Moreover, in the assay with Gβ1γ2 Tyr59Ala, the “% of Wild-Type Signal, Tyr59” value is on record as −2.0 ± 9.5%. The “% of Wild-Type Signal, Lys57” value with Gβ1γ2 Lys57Ala is listed as −4.5 ± 6.2%. Besides, the “% of Wild-Type Signal, Leu117” value with Gβ1γ2 Leu117Ala was found to be 2.1 ± 5.5%. The “% of Wild-Type Signal, Trp332” value in the assay with Gβ1γ2 Trp332Ala is recorded as −1.5 ± 3.6%. In addition, the “% of Wild-Type Signal, His311” value with Gβ1γ2 His311Ala is given as 23.6 ± 46.0%. Moreover, the “% of Wild-Type Signal, Tyr145” value with Gβ1γ2 Tyr145Ala came out at 0.1 ± 6.5%. The “% of Wild-Type Signal, Asp246” value with Gβ1γ2 Asp246Ser amounted to 0.6 ± 2.5%. Besides, the “% of Wild-Type Signal, Arg314” value in the assay with Gβ1γ2 Arg314Ala came to 2.4 ± 3.9%. Also, the “% of Wild-Type Signal, Met101” value in the assay with Gβ1γ2 Met101Ala is reported as 6.0 ± 5.1%. Further, in the assay with Gβ1γ2 Met188Ala, the “% of Wild-Type Signal, Met188” value was 8.5 ± 5.2%. Also, in the assay with Gβ1γ2 Trp99Ala, the “% of Wild-Type Signal, Trp99” value came to 32.6 ± 26.3%.
Regarding `O=C(O)C1CC2C3(Cl)C(Cl)=C(Cl)C(Cl)C2(CC1c1c2ccc(=O)c(O)c-2oc2c(O)c(O)ccc12)C3(Cl)Cl` (centres unmarked) [NSC158110], the “fMLP-dependent ERK activation” value in assay [1] is reported as “do not interfere”.
